Experiment [1] addresses T1, human Type 1 mutCALR (52 bp deletion) (human).
T1 construct: also called human mutCALR Type 1; mutant CALR
T1 chain: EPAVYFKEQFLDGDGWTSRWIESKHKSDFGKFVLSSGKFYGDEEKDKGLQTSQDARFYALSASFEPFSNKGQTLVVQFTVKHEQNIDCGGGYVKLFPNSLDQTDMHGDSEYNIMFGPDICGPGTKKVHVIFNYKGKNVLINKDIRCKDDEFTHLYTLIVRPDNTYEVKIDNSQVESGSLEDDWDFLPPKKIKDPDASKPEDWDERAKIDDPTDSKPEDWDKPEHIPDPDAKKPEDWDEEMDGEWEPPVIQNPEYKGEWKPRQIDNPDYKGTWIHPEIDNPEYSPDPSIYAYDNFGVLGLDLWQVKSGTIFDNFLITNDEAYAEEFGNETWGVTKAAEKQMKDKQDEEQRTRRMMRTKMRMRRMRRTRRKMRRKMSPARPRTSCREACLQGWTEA
As to the kind of experiment: flow cytometry on BaF3 cells stably expressing human MPL and human mutCALR Type 1, goat anti-human R-PE secondary, GMFI. The procedure: Approximately 200,000 cells/well were added to 96-well plates and stained with the indicated concentration of antibodies for 30 minutes on ice. Cells were then washed and stained with goat anti-human secondary conjugated to R-phycoerythrin (R-PE) (Jackson Immuno Research Laboratories) for 30 minutes on ice. The cells were then washed again and analyzed by flow cytometry.

Experiment [2] addresses T2, Human Type 1 mutCALR (human).
T2 chain: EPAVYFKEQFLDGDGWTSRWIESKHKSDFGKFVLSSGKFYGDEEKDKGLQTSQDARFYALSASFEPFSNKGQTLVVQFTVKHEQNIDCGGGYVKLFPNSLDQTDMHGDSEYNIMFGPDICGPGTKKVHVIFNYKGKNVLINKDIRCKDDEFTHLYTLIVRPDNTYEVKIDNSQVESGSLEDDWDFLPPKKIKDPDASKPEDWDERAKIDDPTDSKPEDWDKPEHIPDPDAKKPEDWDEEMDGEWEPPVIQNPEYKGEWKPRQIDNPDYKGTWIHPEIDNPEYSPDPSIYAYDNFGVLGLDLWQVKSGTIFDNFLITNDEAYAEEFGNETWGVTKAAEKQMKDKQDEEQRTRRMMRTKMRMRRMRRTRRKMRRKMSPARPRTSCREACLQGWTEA
Put plainly: cell-based or functional assay.

Experiment [3] concerns the target T2, Human Type 1 mutCALR. Put plainly: cell-based or functional assay.
Experiment [4] deals with T2, Human Type 1 mutCALR. Put plainly: cell-based or functional assay.
Experiment [5] deals with T3, recombinant Flag tag_GFP_tev_hmutCALR Type 1 (human).
T3 construct: also called FLAG-GFP-tev-mutCALR
As to the kind of experiment: HTRF competition: preformed complex of 5 nM Flag-GFP-mutCALR Type 1 and 80 nM His-MPL, anti-FLAG-Europium / anti-6xHis-APC, 90 min reading; blocked ligand: His-MPL. The procedure: HTRF detection solution (2 nM anti-FLAG-Europium, and 100 nM anti-6×His-SureLight® APC) was then added and the plate was read on BMG PHERAstar FSX using kinetic HTRF protocol, obtaining readings every 15 minutes for 120 minutes total. […] Percent-of-control values were obtained by dividing the background-subtracted HTRF Ratios for each test well by the buffer control well in the same plate row.

For experiment [6], the target named is MBP protein (UniProt P0AEX9 27-392 = MBP). Put plainly: SPR (Biacore 8K), antibody captured on anti-human IgG (Fc), MBP injected.

This is an account of results in patent US20230272055A1 (Incyte, published 2023).

B1: AB3: anti-mutCALR antibody including the BJ095 VH region and the BJ097 VL region from WO2019178362 fused to human constant regions (antibody, human IgG1, kappa, V domains shown)
VH: QVQLVQSGAEVKKPGASVKVSCKASGYSFTGYYIHWVRQAPGQGLEWIGYISAYNGASSYNQKFKGRATFTVDTSISTAYMELSRLRSDDTAVYYCASSMDYWGQGTLVTVSS
VL: DVVMTQSPLSLPVTLGQPASISCKSSQSLLDSDGKTYLNWLQQRPGQSPKRLIYLVSKLDSGVPDRFSGSGSGTDFTLKISRVEAEDVGVYHCWQGTHFPYTFGQGTKLIEKR
On to B1, for which the binding result in experiment [1] was “binds”.

B2: anti-mutCALR antibody clone 53 (antibody, human IgG1, lambda, V domains shown)
VH: QVQLVQSGAEVKKPGASVKVSCKVSGYTLTELSMHWVRQAPGKGLEWMGGFDPEDGETIYAQKFQGRVTMTEDTSTDTAYMELSSLRSEDTAVYYCATDIQGLAEFDYWGQGTLVTVSS
VL: QSALTQPRSVSGSPGQSVTISCTGTNTDVGAYIDVSWYQQHPGKAPKLIIYDVSKWPSGVPDRFSGSKSGNTASLTISGLQAEDEADYYCCSYAGNHSFSFGGGTKVTVLG
Take B2: in experiment [2], the “IC50 of inhibition of cell proliferation (BaF3 cells expressing MPL/mutCALR Type 1)” value came to 9.5 mg/L. For the same molecule, in experiment [3], the “Log IC50 of inhibition of cell proliferation, antibody + ruxolitinib (Ba/F3-TPOR/mutCALR type 1 cells)” value was -0.424 Log IC50 (µg/mL) and the “Log IC50 of inhibition of cell proliferation, antibody alone (Ba/F3-TPOR/mutCALR type 1 cells)” value is -0.173 Log IC50 (µg/mL). Also, the “IC50 of inhibition of cell proliferation (Ba/F3 cells with MPL and mutCALR Type 1)” value in experiment [4] was 0.399 mg/L.

B3: AB2: anti-mutCALR antibody including VH and VL regions of antibody B3 from WO2020175689 fused to human constant regions (antibody, human IgG1, kappa, V domains shown)
VH: QVQLQQSGAELVKPGSSVKISCKASGYTFTRNFIHWIKQQPGNGLEWIGWIFPGDGDTEYNQKFNGKATLTADKSSSTAYMQLSSLTSEDSAVYFCARGNYNYEYFDYWGQGVMVTVSS
VL: DIQMTQSPASLSASLGETVSIECLASEDIYSYLAWYQQKPGKSPQLLIFAANRLQDGVPSRFSGSGSGTQFSLKISGMQPEDEGDYFCLQGSKFPYTFGPGTKLELNR
With B3, in experiment [1], the binding result is “binds”.

B4: anti-mutCALR antibody clone 32 (antibody, human IgG1, lambda, V domains shown)
VH: QVQLVQSGAEVKKPGATVKISCKVSGYSFTDYFIHWVQQAPGKGLAWVGLVDPEDGETIYAEKFQGRVTITADTSTDTAYMELSSLRSEDTAVYYCATPGGILTDPDAFDIWGQGTMVTVSS
VL: QSALTQPASVSGSPGQSITISCTGTSSDVGGYNYVSWYQQHPGKAPKLMIYEVSNRPSGVSNRFSGSKSGNTASLTISGLQAEDEADYYCSSYTSSSTPYVFGTGTKVTVLG
notes: also called anti-mutCALR antibody 32
For the molecule B4, the figures for the binding result in experiment [5] and in experiment [6] were “binds” and “no binding (tested: 250 nM)”, respectively.
